Results as given in IntAct's records for PubMed 16888622.

B1: TATA-box-binding protein (Saccharomyces cerevisiae), P13393 (parent)
chain: MADEERLKEFKEANKIVFDPNTRQVWENQNRDGTKPATTFQSEEDIKRAAPESEKDTSATSGIVPTLQNIVATVTLGCRLDLKTVALHARNAEYNPKRFAAVIMRIREPKTTALIFASGKMVVTGAKSEDDSKLASRKYARIIQKIGFAAKFTDFKIQNIVGSCDVKFPIRLEGLAFSHGTFSSYEPELFPGLIYRMVKPKIVLLIFVSGKIVLTGAKQREEIYQAFEAIYPVLSEFRKM
partner: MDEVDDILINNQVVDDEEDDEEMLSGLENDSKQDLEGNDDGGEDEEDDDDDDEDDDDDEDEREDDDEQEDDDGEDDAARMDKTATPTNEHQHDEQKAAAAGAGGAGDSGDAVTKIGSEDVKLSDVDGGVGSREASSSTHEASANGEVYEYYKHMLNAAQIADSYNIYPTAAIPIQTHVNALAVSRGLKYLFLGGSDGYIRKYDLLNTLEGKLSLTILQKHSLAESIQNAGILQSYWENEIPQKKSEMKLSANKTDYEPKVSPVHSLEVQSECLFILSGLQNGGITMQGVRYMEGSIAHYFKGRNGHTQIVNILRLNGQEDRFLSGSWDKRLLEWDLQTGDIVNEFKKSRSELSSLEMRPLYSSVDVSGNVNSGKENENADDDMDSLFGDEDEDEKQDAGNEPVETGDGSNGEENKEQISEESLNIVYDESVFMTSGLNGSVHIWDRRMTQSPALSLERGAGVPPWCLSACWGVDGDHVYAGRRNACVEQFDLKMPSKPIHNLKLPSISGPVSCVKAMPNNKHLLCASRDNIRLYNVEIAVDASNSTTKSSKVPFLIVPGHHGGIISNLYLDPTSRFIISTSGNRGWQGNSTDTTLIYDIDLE

Variants of: B1
Conditions: with spt8_yeast SPT8, P38915

Row | effect of a mutation on the interaction | Variant
1 | disrupting interaction | R171E
